Cross-linked products data for 1 substance are collected here from patent US20190017043A1.

The assay addresses MBP-Z-N6K (Z-domain protein with Asn6 mutated to Lys, fused with maltose binding protein) [MBP: P0AEX9]. As to the kind of experiment: covalent protein-protein cross-linking after sodium periodate treatment, 4 hours, SDS-PAGE.

On to “AFB-D36DOPA (ZSPA affibody with L-DOPA genetically incorporated at position 36) (designed binder)”, for which the cross-linked products fell in the range of 70 to 75%.
